T1: human CD2 (human, UniProt P06729)
T1 chain: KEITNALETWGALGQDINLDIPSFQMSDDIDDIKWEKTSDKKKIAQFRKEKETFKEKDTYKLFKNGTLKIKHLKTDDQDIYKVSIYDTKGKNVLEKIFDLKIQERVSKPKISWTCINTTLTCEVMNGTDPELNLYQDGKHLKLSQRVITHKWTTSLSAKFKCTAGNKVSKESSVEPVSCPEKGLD


Target: T1, human CD2
Test: SPR

Kd [nM]	Binder
15.9	DARPin #15 (designed binder) DLGDKLLEAAQYGQDDEVRILLAAGADVNAKDNSGSTPLHLAAQHGHLEIVEVLLKAGADVNAKDWWGWTPLHEAATTGHLEIVEVLLKAGADVNAQDKSGKTPADLAAHAGHEDIAEVLQKAA
3.28	DARPin #1 (designed binder) DLGVKLLHAAQTGQDDEVRILLAAGADVNAKDWLGVTPLHYAAWIGHLEIVEVLLKAGADVNAKDWQGQTPLHLAAQWGHLEIVEVLLKAGADVNAQDNHGNTPADLAAEVGHEDIAEVLQKAA
48	DARPin #3 (designed binder) DLGKKLLQAARAGQLDEVRELLKAGADVNAKDQQGVTPLHIAAYGHLEIVEVLLKAGADVNAKDLQGETPLHVAAWAGHLEIVEVLLKAGADVNAKDKHGITPLHLAAKKGHLEIVEVLLKAGAEVNAQDKSGKTPADLAARAGHQDIAEVLQKAA
382	DARPin #2 (designed binder) DLGKKLLQAARAGQLDEVRELLKAGADVNAKDQHGFTPLHVAAKEGHLEIVEVLLKAGADVNAKDSFGETPLHLAAEHGHLEIVEVLLKAGADVNAKDQSGWTPLHLAAWAGHLEIVEVLLKAGADVNAQDKSGKTPADLAARAGHQDIAEVLQKAA
